According to patent publication US20150344570A1 (published 2015):

T1: FcγRIIb extracellular domain with C-terminal His tag (human, UniProt P31994 43-217)
T1 construct: extracellular domain; also called FcgRIIb; 2b
T1 sequence (looked up): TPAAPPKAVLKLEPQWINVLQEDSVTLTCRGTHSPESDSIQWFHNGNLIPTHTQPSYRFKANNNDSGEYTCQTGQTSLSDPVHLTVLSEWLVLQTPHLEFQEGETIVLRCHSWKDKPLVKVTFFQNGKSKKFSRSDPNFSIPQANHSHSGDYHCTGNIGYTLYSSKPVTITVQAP


What follows are binders tested against T1, FcγRIIb extracellular domain with … (assay: SPR (Biacore), relative binding).

He/Con_2b | Binder
172 % of HeCon Ab GpH7-A5/GpH7-B3/GpL16-k0 | GpH7-A5/GpH7-B3 variant L328_10E/GpL16-k0 (antibody, human IgG1, kappa, also called He Ab L328_10E) heavy 1: not shown heavy 2: not shown light: DIVMTQSPLSLPVTPGEPASISCQASESLVHSNRNTYLHWYLQKPGQSPQLLIYKVSNRFSGVPDRFSGSGSGTDFTLKISRVEAEDVGVYYCSQNTHVPPTFGQGTKVEIERTVAAPSVFIFPPSDEQLKSGTASVVCLLNNFYPREAKVQWKVDNALQSGNSQESVTEQDSKDSTYSLSSTLTLSKADYEKHKVYACEVTHQGLSSPVTKSFNRGEC
143 % of HeCon Ab GpH7-A5/GpH7-B3/GpL16-k0 | GpH7-A5/GpH7-B3 variant N325_04F/GpL16-k0 (antibody, human IgG1, kappa, also called He Ab N325_04F) heavy 1: not shown heavy 2: not shown light: DIVMTQSPLSLPVTPGEPASISCQASESLVHSNRNTYLHWYLQKPGQSPQLLIYKVSNRFSGVPDRFSGSGSGTDFTLKISRVEAEDVGVYYCSQNTHVPPTFGQGTKVEIERTVAAPSVFIFPPSDEQLKSGTASVVCLLNNFYPREAKVQWKVDNALQSGNSQESVTEQDSKDSTYSLSSTLTLSKADYEKHKVYACEVTHQGLSSPVTKSFNRGEC
101 % of HeCon Ab GpH7-A5/GpH7-B3/GpL16-k0 | GpH7-A5/GpH7-B3 variant N325_01G/GpL16-k0 (antibody, human IgG1, kappa, also called He Ab N325_01G) heavy 1: not shown heavy 2: not shown light: DIVMTQSPLSLPVTPGEPASISCQASESLVHSNRNTYLHWYLQKPGQSPQLLIYKVSNRFSGVPDRFSGSGSGTDFTLKISRVEAEDVGVYYCSQNTHVPPTFGQGTKVEIERTVAAPSVFIFPPSDEQLKSGTASVVCLLNNFYPREAKVQWKVDNALQSGNSQESVTEQDSKDSTYSLSSTLTLSKADYEKHKVYACEVTHQGLSSPVTKSFNRGEC
199 % of HeCon Ab GpH7-A5/GpH7-B3/GpL16-k0 | GpH7-A5/GpH7-B3 variant L328_09D/GpL16-k0 (antibody, human IgG1, kappa, also called He Ab L328_09D) heavy 1: not shown heavy 2: not shown light: DIVMTQSPLSLPVTPGEPASISCQASESLVHSNRNTYLHWYLQKPGQSPQLLIYKVSNRFSGVPDRFSGSGSGTDFTLKISRVEAEDVGVYYCSQNTHVPPTFGQGTKVEIERTVAAPSVFIFPPSDEQLKSGTASVVCLLNNFYPREAKVQWKVDNALQSGNSQESVTEQDSKDSTYSLSSTLTLSKADYEKHKVYACEVTHQGLSSPVTKSFNRGEC
144 % of HeCon Ab GpH7-A5/GpH7-B3/GpL16-k0 | GpH7-A5/GpH7-B3 variant L328_02A/GpL16-k0 (antibody, human IgG1, kappa, also called He Ab L328_02A) heavy 1: not shown heavy 2: not shown light: DIVMTQSPLSLPVTPGEPASISCQASESLVHSNRNTYLHWYLQKPGQSPQLLIYKVSNRFSGVPDRFSGSGSGTDFTLKISRVEAEDVGVYYCSQNTHVPPTFGQGTKVEIERTVAAPSVFIFPPSDEQLKSGTASVVCLLNNFYPREAKVQWKVDNALQSGNSQESVTEQDSKDSTYSLSSTLTLSKADYEKHKVYACEVTHQGLSSPVTKSFNRGEC
111 % of HeCon Ab GpH7-A5/GpH7-B3/GpL16-k0 | GpH7-A5/GpH7-B3 variant N325_03V/GpL16-k0 (antibody, human IgG1, kappa, also called He Ab N325_03V) heavy 1: not shown heavy 2: not shown light: DIVMTQSPLSLPVTPGEPASISCQASESLVHSNRNTYLHWYLQKPGQSPQLLIYKVSNRFSGVPDRFSGSGSGTDFTLKISRVEAEDVGVYYCSQNTHVPPTFGQGTKVEIERTVAAPSVFIFPPSDEQLKSGTASVVCLLNNFYPREAKVQWKVDNALQSGNSQESVTEQDSKDSTYSLSSTLTLSKADYEKHKVYACEVTHQGLSSPVTKSFNRGEC
149 % of HeCon Ab GpH7-A5/GpH7-B3/GpL16-k0 | GpH7-A5/GpH7-B3 variant L328_13S/GpL16-k0 (antibody, human IgG1, kappa, also called He Ab L328_13S) heavy 1: not shown heavy 2: not shown light: DIVMTQSPLSLPVTPGEPASISCQASESLVHSNRNTYLHWYLQKPGQSPQLLIYKVSNRFSGVPDRFSGSGSGTDFTLKISRVEAEDVGVYYCSQNTHVPPTFGQGTKVEIERTVAAPSVFIFPPSDEQLKSGTASVVCLLNNFYPREAKVQWKVDNALQSGNSQESVTEQDSKDSTYSLSSTLTLSKADYEKHKVYACEVTHQGLSSPVTKSFNRGEC

The next lines start with the binder.

Binder | He/Con_2b
GpH7-A5/GpH7-B3 variant K326_08L/GpL16-k0 (antibody, human IgG1, kappa, also called He Ab K326_08L) heavy 1: not shown heavy 2: not shown light: DIVMTQSPLSLPVTPGEPASISCQASESLVHSNRNTYLHWYLQKPGQSPQLLIYKVSNRFSGVPDRFSGSGSGTDFTLKISRVEAEDVGVYYCSQNTHVPPTFGQGTKVEIERTVAAPSVFIFPPSDEQLKSGTASVVCLLNNFYPREAKVQWKVDNALQSGNSQESVTEQDSKDSTYSLSSTLTLSKADYEKHKVYACEVTHQGLSSPVTKSFNRGEC | 177 % of HeCon Ab GpH7-A5/GpH7-B3/GpL16-k0
GpH7-A5/GpH7-B3 variant L234_09D/GpL16-k0 (antibody, human IgG1, kappa, also called He Ab L234_09D) heavy 1: not shown heavy 2: not shown light: DIVMTQSPLSLPVTPGEPASISCQASESLVHSNRNTYLHWYLQKPGQSPQLLIYKVSNRFSGVPDRFSGSGSGTDFTLKISRVEAEDVGVYYCSQNTHVPPTFGQGTKVEIERTVAAPSVFIFPPSDEQLKSGTASVVCLLNNFYPREAKVQWKVDNALQSGNSQESVTEQDSKDSTYSLSSTLTLSKADYEKHKVYACEVTHQGLSSPVTKSFNRGEC | 150 % of HeCon Ab GpH7-A5/GpH7-B3/GpL16-k0
GpH7-A5/GpH7-B3 variant L235_20W/GpL16-k0 (antibody, human IgG1, kappa, also called He Ab L235_20W) heavy 1: not shown heavy 2: not shown light: DIVMTQSPLSLPVTPGEPASISCQASESLVHSNRNTYLHWYLQKPGQSPQLLIYKVSNRFSGVPDRFSGSGSGTDFTLKISRVEAEDVGVYYCSQNTHVPPTFGQGTKVEIERTVAAPSVFIFPPSDEQLKSGTASVVCLLNNFYPREAKVQWKVDNALQSGNSQESVTEQDSKDSTYSLSSTLTLSKADYEKHKVYACEVTHQGLSSPVTKSFNRGEC | 147 % of HeCon Ab GpH7-A5/GpH7-B3/GpL16-k0
GpH7-A5/GpH7-B3 variant L234_10E/GpL16-k0 (antibody, human IgG1, kappa, also called He Ab L234_10E) heavy 1: not shown heavy 2: not shown light: DIVMTQSPLSLPVTPGEPASISCQASESLVHSNRNTYLHWYLQKPGQSPQLLIYKVSNRFSGVPDRFSGSGSGTDFTLKISRVEAEDVGVYYCSQNTHVPPTFGQGTKVEIERTVAAPSVFIFPPSDEQLKSGTASVVCLLNNFYPREAKVQWKVDNALQSGNSQESVTEQDSKDSTYSLSSTLTLSKADYEKHKVYACEVTHQGLSSPVTKSFNRGEC | 118 % of HeCon Ab GpH7-A5/GpH7-B3/GpL16-k0
GpH7-A5/GpH7-B3 variant L235_04F/GpL16-k0 (antibody, human IgG1, kappa, also called He Ab L235_04F) heavy 1: not shown heavy 2: not shown light: DIVMTQSPLSLPVTPGEPASISCQASESLVHSNRNTYLHWYLQKPGQSPQLLIYKVSNRFSGVPDRFSGSGSGTDFTLKISRVEAEDVGVYYCSQNTHVPPTFGQGTKVEIERTVAAPSVFIFPPSDEQLKSGTASVVCLLNNFYPREAKVQWKVDNALQSGNSQESVTEQDSKDSTYSLSSTLTLSKADYEKHKVYACEVTHQGLSSPVTKSFNRGEC | 118 % of HeCon Ab GpH7-A5/GpH7-B3/GpL16-k0
GpH7-A5/GpH7-B3 variant K326_20W/GpL16-k0 (antibody, human IgG1, kappa, also called He Ab K326_20W) heavy 1: not shown heavy 2: not shown light: DIVMTQSPLSLPVTPGEPASISCQASESLVHSNRNTYLHWYLQKPGQSPQLLIYKVSNRFSGVPDRFSGSGSGTDFTLKISRVEAEDVGVYYCSQNTHVPPTFGQGTKVEIERTVAAPSVFIFPPSDEQLKSGTASVVCLLNNFYPREAKVQWKVDNALQSGNSQESVTEQDSKDSTYSLSSTLTLSKADYEKHKVYACEVTHQGLSSPVTKSFNRGEC | 148 % of HeCon Ab GpH7-A5/GpH7-B3/GpL16-k0
GpH7-A5/GpH7-B3 variant L235_15Y/GpL16-k0 (antibody, human IgG1, kappa, also called He Ab L235_15Y) heavy 1: not shown heavy 2: not shown light: DIVMTQSPLSLPVTPGEPASISCQASESLVHSNRNTYLHWYLQKPGQSPQLLIYKVSNRFSGVPDRFSGSGSGTDFTLKISRVEAEDVGVYYCSQNTHVPPTFGQGTKVEIERTVAAPSVFIFPPSDEQLKSGTASVVCLLNNFYPREAKVQWKVDNALQSGNSQESVTEQDSKDSTYSLSSTLTLSKADYEKHKVYACEVTHQGLSSPVTKSFNRGEC | 149 % of HeCon Ab GpH7-A5/GpH7-B3/GpL16-k0
GpH7-A5/GpH7-B3 variant L235_09D/GpL16-k0 (antibody, human IgG1, kappa, also called He Ab L235_09D) heavy 1: not shown heavy 2: not shown light: DIVMTQSPLSLPVTPGEPASISCQASESLVHSNRNTYLHWYLQKPGQSPQLLIYKVSNRFSGVPDRFSGSGSGTDFTLKISRVEAEDVGVYYCSQNTHVPPTFGQGTKVEIERTVAAPSVFIFPPSDEQLKSGTASVVCLLNNFYPREAKVQWKVDNALQSGNSQESVTEQDSKDSTYSLSSTLTLSKADYEKHKVYACEVTHQGLSSPVTKSFNRGEC | 106 % of HeCon Ab GpH7-A5/GpH7-B3/GpL16-k0
GpH7-A5/GpH7-B3 variant L234_20W/GpL16-k0 (antibody, human IgG1, kappa, also called He Ab L234_20W) heavy 1: not shown heavy 2: not shown light: DIVMTQSPLSLPVTPGEPASISCQASESLVHSNRNTYLHWYLQKPGQSPQLLIYKVSNRFSGVPDRFSGSGSGTDFTLKISRVEAEDVGVYYCSQNTHVPPTFGQGTKVEIERTVAAPSVFIFPPSDEQLKSGTASVVCLLNNFYPREAKVQWKVDNALQSGNSQESVTEQDSKDSTYSLSSTLTLSKADYEKHKVYACEVTHQGLSSPVTKSFNRGEC | 114 % of HeCon Ab GpH7-A5/GpH7-B3/GpL16-k0
